Molecular target: CotB3 (class I P450 hydroxylase of the cyclooctatin pathway) (Streptomyces melanosporofaciens MI614-43F2) (UniProt C9K1X6)
Sequence of UniProt C9K1X6 (C9K1X6 whole entry): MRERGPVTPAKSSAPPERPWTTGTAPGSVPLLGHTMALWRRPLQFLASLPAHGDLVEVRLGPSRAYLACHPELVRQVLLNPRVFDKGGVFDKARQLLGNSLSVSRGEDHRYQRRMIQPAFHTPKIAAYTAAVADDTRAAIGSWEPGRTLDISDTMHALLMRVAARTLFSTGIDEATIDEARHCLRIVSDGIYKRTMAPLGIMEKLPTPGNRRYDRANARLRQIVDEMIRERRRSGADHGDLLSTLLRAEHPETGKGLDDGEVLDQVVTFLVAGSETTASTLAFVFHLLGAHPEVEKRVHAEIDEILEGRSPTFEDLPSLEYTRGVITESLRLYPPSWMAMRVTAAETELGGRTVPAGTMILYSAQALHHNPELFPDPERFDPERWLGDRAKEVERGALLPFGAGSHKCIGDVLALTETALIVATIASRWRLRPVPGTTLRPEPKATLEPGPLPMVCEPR

whole cell catalysis in E. coli (CotB3 with PdR/Pdx-W106E): formation of cyclooctat-9-en-5,7-diol from added cyclooctat-9-en-7-ol, GC-MS: 100%
Substance: Pdx-W106E (putidaredoxin, ferredoxin of the Pseudomonas putida PdR·Pdx redox system, W106E mutant) (natural protein)

Source: article PMC4877809
